Patent US5756340A, “Insect control with multiple toxins” (The Regents of the University of California, priority 1995, dated 1998)

B1: LqhVI (protein)
chain: GVRDGYIAQPENCVYHCFPGSPGCDTLCKGDGASSGHCGFKEGHGLACWCNDLPDKVGIIVEGEKCH
B2: AaIT: excitatory insect-selective scorpion toxin from Androctonus australis (protein, UniProt P01497 19-88, looked up)
Beta-insect excitatory toxin 1: KKNGYAVDSSGKAPECLLSNYCNNECTKVHYADKGYCCLLSCYCFGLNDDKKVLEISDTRKSYCDTTIIN
B3: LqhIV (protein)
peptide: GVRDAYIADDKNCVYTCGANSYCNTECTKNGAESGYCQWFGKYGNACWCIKLPDKVPIRIPGKCR

Legend:
Type in all cases: in vivo
[1] = test system: Heliothis virescens larvae; assay: Paralysis (PU50) of lepidopterous larvae after toxin injection; conditions: single toxin injected; inability to move or turn when inverted, 24 hours after injection
Method: (§1) The activities of four different insect toxins towards two different insects and towards mice were determined (since one prefers to use insect toxins that have little or no effect on mammals). These were purified by established methods from the respective crude venoms. Their toxicity towards mice and larvae of blow fly and lepidoptera was determined according to the method of Reed and Muench (1938).
(§2) The PU50 values of the toxins to blow fly larvae were in accordance with previously published results (Zlotkin et al., Biochim, 53, 1075-1078 (1971); and Eitan et al., Biochem., 29, 5941-5947 (1990)). […]
each one of the toxins and the PU50 was determined as inability to
or turn when inverted on its back 24 hours after injection. […]

[2] = test system: Sarcophaga falculata larvae; assay: Paralysis (PU50) of blow fly larvae after toxin injection; conditions: single toxin injected; contraction paralysis immediately, or flaccid/delayed paralysis 5 minutes after injection
Method: as §1, §2
one of the toxins and the PU50 were determined. The PU50 of
excitatory toxins AaIT, LqhVI, and LqhIT3 was determined as a
contraction paralysis immediately after injection. The PU50 of the
depressant toxin LqhIT2 was determined as a flaccid paralysis 5
after injection. The PU50 of the α insect toxins LqhαIT

Swiss Webster mice = assay: LD50 to mice, subcutaneous injection; conditions: for toxicity towards mice / mammals (in words): Swiss Webster mice; for LD50 to Swiss Webster mice: single toxin, subcutaneous, 24 hours after injection
Method: as §1
The PU50 values of the toxins to blow fly larvae were in accordance with previously published results (Zlotkin et al., Biochim, 53, 1075-1078 (1971); and Eitan et al., Biochem., 29, 5941-5947 (1990)).
(§3) ^c Two replicates of eight mice were injected subcutaneously and the
to mice was determined 24 hours after injection.
as §3
LD50 to mice was determined 24 hours after injection.

Row | Molecule | PU50 to Heliothis virescens larvae [1] [μg/100 mg b.w.] | PU50 to Sarcophaga falculata larvae [2] [μg/100 mg b.w.] | toxicity towards mice / mammals (in words) (Swiss Webster mice) | LD50 to Swiss Webster mice (Swiss Webster mice) [μg/20 g b.w.]
1 | LqhαIT: α insect toxin from yellow scorpion Leuirus quinquestriatus hebraeus | 2.5 | 0.0025 | higher toxicity | 8.0
2 | B1 | 3.0 | 0.006 | weak mammal toxicity | > 60
3 | B2 | 2.5 | 0.0025 | – | > 60
4 | B3 | 0.5 | 0.1 | no or weak mammal toxicity | 12
